According to patent publication US20210139932A1:

How the values were obtained:
human L-selectin (human) = human L-selectin (human) (UniProt P14151); experiment: cell-based or functional assay
CD34 (human) = CD34 (human) (UniProt P28906); experiment: cell-based or functional assay
Sequence of UniProt P28906 (P28906 32-385): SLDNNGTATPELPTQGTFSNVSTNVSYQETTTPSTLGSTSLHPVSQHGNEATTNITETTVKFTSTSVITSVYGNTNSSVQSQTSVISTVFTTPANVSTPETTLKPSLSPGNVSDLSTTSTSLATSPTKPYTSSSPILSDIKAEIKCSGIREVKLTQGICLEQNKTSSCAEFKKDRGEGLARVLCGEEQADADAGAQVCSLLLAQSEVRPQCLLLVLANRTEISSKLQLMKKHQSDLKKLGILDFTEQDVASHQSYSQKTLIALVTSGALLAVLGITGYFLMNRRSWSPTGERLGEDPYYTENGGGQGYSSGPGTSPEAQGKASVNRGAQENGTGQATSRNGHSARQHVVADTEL

**Q.** How did the reduction of the L-selectin enhanced amount of CD34+ transduction (human L-selectin (human)) turn out when “anti-human L-selectin antibody (clone DREG56; Thermo Fisher)” was run?
**A.** Its reduction of the L-selectin enhanced amount of CD34+ transduction is 79%.

**Q.** With “human L-selectin (from UniProt P14151 39-372) (ligand)” as the substance, how does the transduction of cytokine-stimulated CD34+ cells (% eGFP+ cells) (CD34 (human)) read?
**A.** The transduction of cytokine-stimulated CD34+ cells (% eGFP+ cells) was 2 fold.
